Laboratory results: patent US20250144141A1 (CDR LIFE, published 2025)
Read-outs that look alike come from different tables or passages of the source. One block for each binder: values may come before it.

Tests used:
[1] = biological target: T1, HLA-A*02:01/MAGE-A4 complex (human, UniProt P04439 25-299 at identity 0.94); P61769 21-119); assay: direct ELISA, plate coated with HLA-A*02:01/MAGE-A4 complex, serial dilution of the Fab
T1 construct: Coated on ELISA plates and on a streptavidin SPR chip; a biotin tag is not described; also called HLA-A2/MAGE-A4 complex; pMHC-MAGE-A4

[2] = biological target: T1, HLA-A*02:01/MAGE-A4 complex; assay: direct ELISA, plate coated with HLA-A*02:01/MAGE-A4 complex, as in Example 6
[3] = biological target: T1, HLA-A*02:01/MAGE-A4 complex; assay: SPR (Biacore T200), HLA-A*02:01/MAGE-A4 as ligand; sample kept in human serum at 37 C for 0, 7 and 24 h and injected after 1:100 dilution; signal relative to the start sample
[4] = biological target: HLA-A*02:01/MAGE-A4 displayed on T2 cells (human); assay: cell-based or functional assay
[5] = biological target: T1, HLA-A*02:01/MAGE-A4 complex; assay: SPR (Biacore T200), HLA-A*02:01/MAGE-A4 as ligand; sample kept in human serum at 37 C for 0, 7 and 24 h and injected after 1:100 dilution; signal relative to the start sample; remark: listed apart in the source
[6] = biological target: T1, HLA-A*02:01/MAGE-A4 complex; assay: SPR
[7] = biological target: T1, HLA-A*02:01/MAGE-A4 complex; assay: SPR; remark: listed apart in the source

B1: M0702 (Fab, V domains shown)
VH: QEQLEESGGGLVTPGTPLTLTCTASGFSLSSYAMIWVRQAPGKGLEWIGTINDGGTAFYANWVKGRFTISRTSTTVDLKMTSPTTEDTATYFCARAYGSNGDVYWGYVNLWGQGTLVTVSS
VL: ELVMTQTPASVSEPVGGTVTIKCQASQSIGSNLAWYQQKPGQPPKLLIYAAANLASGVSSRFKGSRSGTEYTLTISGVQAADAATYYCQQGYSSSNVANVFGGGTELEILR
- EC50 (read off the curve) [1]: ~0.6 nM

B2: M0873 (antibody, V domains shown)
VH: ESQVLESGGGSVQPGGSLRLSCTVSGFSLSNYAMSWVRQAPGKGLEYIGIVSSGGTTYYASWAKGRFTISKDTSKNTVYLQMNSLRAEDTASYYCAKDLYYGPTTYSAFNLWGQGTSVTVSS
VL: SYELTQPPSVSVSPGQTASITCTADTLSRSYASWYQQKPGQSPVLVIYRDTSRPSGIPERFSGSNSGNTATLTISGTQAMDEADYYCATSDGSGSNFQLFGGGTKLTVL
- EC50 (read off the curve) [2]: ~1 nM

B5: M1067 (bispecific antibody)
chain 1: SYELTQPPSVSVSPGQTASITCTADTLSRSYASWYQQKPGQSPVLVIYRDTSRPSGIPERFSGSNSGNTATLTISGTQAMDEADYYCATRPSSGSNFQLFGGGTKLTVLGGGGGGSGGGGSGGGGSGGGGSEVQLLESGGGSVQPGGSLRLSCTVSGFSLSNYAMSWVRQAPGKGLEYIGIVSSGGTTYYASWAKGRFTISKDTSKNTVYLQMNSLRAEDTASYYCAKDLYYGPTTYSAFNLWGQGTSVTVSS
chain 2: EVQLVESGGGLVQPGGSLRLSCAASGFTFSTYAMNWVRQAPGKGLEWVGRIRSKYNNYATYYADSVKGRFTISRDDSKNTLYLQMNSLRAEDTAVYYCVRHGNFGDSYVSWFAYWGQGTLVTVSSASTKGPSVFPLAPSSKSTSGGTAALGCLVKDYFPEPVTVSWNSGALTSGVHTFPAVLQSSGLYSLSSVVTVPSSSLGTQTYICNVNHKPSNTKVDKRVEPKSC
chain 3: QAVVTQEPSLTVSPGGTVTLTCGSSTGAVTTSNYANWVQQKPGKSPRGLIGGTNKRAPGVPARFSGSLLGGKAALTISGAQPEDEADYYCALWYSNHWVFGGGTKLTVLGQPKAAPSVTLFPPSSEELQANKATLVCLISDFYPGAVTVAWKADSSPVKAGVETTTPSKQSNNKYAASSYLSLTPEQWKSHRSYSCQVTHEGSTVEKTVAPTECS
- Kd [6]: 0.12 nM

B7: M1068 (bispecific antibody)
chain 1: SYELTQPPSVSVSPGQTASITCTADTLSRSYASWYQQKPGQSPVLVIYRDTSRPSGIPERFSGSNSGNTATLTISGTQAMDEADYYCATRPSSGSNFQLFGGGTKLTVLGGGGGGSGGGGSGGGGSGGGGSEVQLLESGGGSVQPGGSLRLSCTVSGFSLSNYAMSWVRQAPGKGLEWIGIVSSGGTTYYASWAKGRFTISKDTSKNTVYLQMNSLRAEDTASYYCAKDLYYGPTTYSAFNLWGQGTSVTVSS
chain 2: EVQLVESGGGLVQPGGSLRLSCAASGFTFSTYAMNWVRQAPGKGLEWVGRIRSKYNNYATYYADSVKGRFTISRDDSKNTLYLQMNSLRAEDTAVYYCVRHGNFGDSYVSWFAYWGQGTLVTVSSASTKGPSVFPLAPSSKSTSGGTAALGCLVKDYFPEPVTVSWNSGALTSGVHTFPAVLQSSGLYSLSSVVTVPSSSLGTQTYICNVNHKPSNTKVDKRVEPKSC
chain 3: QAVVTQEPSLTVSPGGTVTLTCGSSTGAVTTSNYANWVQQKPGKSPRGLIGGTNKRAPGVPARFSGSLLGGKAALTISGAQPEDEADYYCALWYSNHWVFGGGTKLTVLGQPKAAPSVTLFPPSSEELQANKATLVCLISDFYPGAVTVAWKADSSPVKAGVETTTPSKQSNNKYAASSYLSLTPEQWKSHRSYSCQVTHEGSTVEKTVAPTECS
- Kd [7]: 1 nM

Second part, the binder after the results:

- binding result [3]: binds
B3: M1403 (bispecific antibody)
heavy: EVQLVESGGGLVQPGGSLRLSCAASGFTFSTYAMNWVRQAPGKGLEWVGRIRSKYNNYATYYADSVKGRFTISRDDSKNTLYLQMNSLRAEDTAVYYCVRHGNFGDSYVSWFAYWGQGTLVTVSSASTKGPSVFPLAPSSKSTSGGTAALGCLVKDYFPEPVTVSWNSGALTSGVHTFPAVLQSSGLYSLSSVVTVPSSSLGTQTYICNVNHKPSNTKVDKRVEPKSCGGGGSSYELTQPPSVSVSPGQTASITCTADTLSRSYASWYQQKPGQSPVLVIYRDTSRPSGIPERFSGSNSGNTATLTISGTQAMDEADYYCATRPSSGSNFQAFGGGTKLTVLGGGGGGSGGGGSGGGGSGGGGSEVQLLESGGGSVQPGGSLRLSCTVSGFSLSNYAMSWVRQAPGKGLEYIGIVSSGGTTYYASWAKGRFTISRDNSKNTVYLQMNSLRAEDTASYYCAKDLYYGPTTYSAFNLWGQGTSVTVSS
light: QAVVTQEPSLTVSPGGTVTLTCGSSTGAVTTSNYANWVQQKPGKSPRGLIGGTNKRAPGVPARFSGSLLGGKAALTISGAQPEDEADYYCALWYSNHWVFGGGTKLTVLGQPKAAPSVTLFPPSSEELQANKATLVCLISDFYPGAVTVAWKADSSPVKAGVETTTPSKQSNNKYAASSYLSLTPEQWKSHRSYSCQVTHEGSTVEKTVAPTECSGGGGSSYELTQPPSVSVSPGQTASITCTADTLSRSYASWYQQKPGQSPVLVIYRDTSRPSGIPERFSGSNSGNTATLTISGTQAMDEADYYCATRPSSGSNFQAFGGGTKLTVLGGGGGGSGGGGSGGGGSGGGGSEVQLLESGGGSVQPGGSLRLSCTVSGFSLSNYAMSWVRQAPGKGLEYIGIVSSGGTTYYASWAKGRFTISRDNSKNTVYLQMNSLRAEDTASYYCAKDLYYGPTTYSAFNLWGQGTSVTVSS
notes: Fab(scFv)2 dual pMHC-targeting T cell engager, no Fc; also called dual engager M1403

- IFN-gamma release (T cell activation) with PBMCs and T2 cells pulsed with titrated peptide, compound at 1 nM; EC50 on the peptide concentration [4]: 5.75 nM
- binding result [5]: binds
B4: M1397 (bispecific antibody)
heavy: EVQLVESGGGLVQPGGSLRLSCAASGFTFSTYAMNWVRQAPGKGLEWVGRIRSKYNNYATYYADSVKGRFTISRDDSKNTLYLQMNSLRAEDTAVYYCVRHGNFGDSYVSWFAYWGQGTLVTVSSASTKGPSVFPLAPSSKSTSGGTAALGCLVKDYFPEPVTVSWNSGALTSGVHTFPAVLQSSGLYSLSSVVTVPSSSLGTQTYICNVNHKPSNTKVDKRVEPKSCGGGGSQSVLTQDPAVSVALGQTVRITCTADTLSRSYASWYQQKPGQAPVLVIYRDTSRPSGIPDRFSGSSSGNTASLTITGAQAEDEADYYCATRPSSGSNFQAFGGGTKLTVLGGGGGSGGGGSGGGGSGGGGSEVQLLESGGGSVQPGGSLRLSCTVSGFSLSNYAMSWVRQAPGKGLEWIGIVSSGGTTYYADSVKGRFTISRDNSKNTVYLQMNSLRAEDTASYYCAKDLYYGPNTDYSAANLWGQGTSVTVSS
light: QAVVTQEPSLTVSPGGTVTLTCGSSTGAVTTSNYANWVQQKPGKSPRGLIGGTNKRAPGVPARFSGSLLGGKAALTISGAQPEDEADYYCALWYSNHWVFGGGTKLTVLGQPKAAPSVTLFPPSSEELQANKATLVCLISDFYPGAVTVAWKADSSPVKAGVETTTPSKQSNNKYAASSYLSLTPEQWKSHRSYSCQVTHEGSTVEKTVAPTECSGGGGSQSVLTQDPAVSVALGQTVRITCTADTLSRSYASWYQQKPGQAPVLVIYRDTSRPSGIPDRFSGSSSGNTASLTITGAQAEDEADYYCATRPSSGSNFQAFGGGTKLTVLGGGGGSGGGGSGGGGSGGGGSEVQLLESGGGSVQPGGSLRLSCTVSGFSLSNYAMSWVRQAPGKGLEWIGIVSSGGTTYYADSVKGRFTISRDNSKNTVYLQMNSLRAEDTASYYCAKDLYYGPNTDYSAANLWGQGTSVTVSS
notes: Fab(scFv)2 dual pMHC-targeting T cell engager, no Fc; also called dual engager M1397; dual T cell engager M1397

- Kd [7]: 0.8 nM
B6: M1312 (bispecific antibody)
chain 1: SSELTQDPAVSVALGQTVRITCTADTLSRSYASWYQQKPGQAPVLVIYRDTSRPSGIPDRFSGSSSGNTASLTITGAQAEDEADYYCATRPSSGSNFQLFGGGTKLTVLGGGGGSGGGGSGGGGSGGGGSEVQLLESGGGSVQPGGSLRLSCTVSGFSLSNYAMSWVRQAPGKGLEWIGIVSSGGTTYYASWAKGRFTISKDTSKNTVYLQMNSLRAEDTASYYCAKDLYYGPNTDYSAANLWGQGTSVTVSS
chain 2: EVQLVESGGGLVQPGGSLRLSCAASGFTFSTYAMNWVRQAPGKGLEWVGRIRSKYNNYATYYADSVKGRFTISRDDSKNTLYLQMNSLRAEDTAVYYCVRHGNFGDSYVSWFAYWGQGTLVTVSSASTKGPSVFPLAPSSKSTSGGTAALGCLVKDYFPEPVTVSWNSGALTSGVHTFPAVLQSSGLYSLSSVVTVPSSSLGTQTYICNVNHKPSNTKVDKRVEPKSC
chain 3: QAVVTQEPSLTVSPGGTVTLTCGSSTGAVTTSNYANWVQQKPGKSPRGLIGGTNKRAPGVPARFSGSLLGGKAALTISGAQPEDEADYYCALWYSNHWVFGGGTKLTVLGQPKAAPSVTLFPPSSEELQANKATLVCLISDFYPGAVTVAWKADSSPVKAGVETTTPSKQSNNKYAASSYLSLTPEQWKSHRSYSCQVTHEGSTVEKTVAPTECS

- Kd [7]: 1.4 nM
B8: M1394 (bispecific antibody)
chain 1: SSELTQDPAVSVALGQTVRITCTADTLSRSYASWYQQKPGQAPVLVIYRDTSRPSGIPDRFSGSSSGNTASLTITGAQAEDEADYYCATRPSSGSNFQLFGGGTKLTVLGGGGGSGGGGSGGGGSGGGGSEVQLLESGGGSVQPGGSLRLSCTVSGFSLSNYAMSWVRQAPGKGLEWIGIVSSGGTTYYASWAKGRFTISRDNSKNTVYLQMNSLRAEDTASYYCAKDLYYGPNTDYSAANLWGQGTSVTVSS
chain 2: EVQLVESGGGLVQPGGSLRLSCAASGFTFSTYAMNWVRQAPGKGLEWVGRIRSKYNNYATYYADSVKGRFTISRDDSKNTLYLQMNSLRAEDTAVYYCVRHGNFGDSYVSWFAYWGQGTLVTVSSASTKGPSVFPLAPSSKSTSGGTAALGCLVKDYFPEPVTVSWNSGALTSGVHTFPAVLQSSGLYSLSSVVTVPSSSLGTQTYICNVNHKPSNTKVDKRVEPKSC
chain 3: QAVVTQEPSLTVSPGGTVTLTCGSSTGAVTTSNYANWVQQKPGKSPRGLIGGTNKRAPGVPARFSGSLLGGKAALTISGAQPEDEADYYCALWYSNHWVFGGGTKLTVLGQPKAAPSVTLFPPSSEELQANKATLVCLISDFYPGAVTVAWKADSSPVKAGVETTTPSKQSNNKYAASSYLSLTPEQWKSHRSYSCQVTHEGSTVEKTVAPTECS
